Experimental data as given in patent US20250121075A1, “ALPHA-FETOPROTEIN BIOCONJUGATES FOR DISEASE TREATMENT” (priority 2021, published 2025).

Tests used:
[1] = target: alpha-fetoprotein (AFP) receptor (AFPR) (human); test: AF-647 labeled rhAFP incubated with COLO 205 cells at 37 C for 0.5, 2 and 5 h, plate reader fluorescence
[2] = target: alpha-fetoprotein (AFP) receptor (AFPR) (human); test: AF-647 labeled rhAFP incubated with MCF7 cells at 37 C for 0.5, 2 and 5 h, plate reader fluorescence
[3] = target: alpha-fetoprotein (AFP) receptor (AFPR) (human); test: AF-647 labeled rhAFP incubated with H522 cells at 37 C for 0.5, 2 and 5 h, plate reader fluorescence
[4] = target: alpha-fetoprotein (AFP) receptor (AFPR) (human); test: AF-647 labeled rhAFP incubated with OVCAR-3 cells at 37 C for 0.5, 2 and 5 h, plate reader fluorescence
[5] = target: alpha-fetoprotein (AFP) receptor (AFPR) (human); test: AF-647 labeled rhAFP incubated with MOLT-4 cells at 37 C for 0.5, 2 and 5 h, plate reader fluorescence
[6] = target: alpha-fetoprotein (AFP) receptor (AFPR) (human); test: AF-647 labeled rhAFP incubated with SKOV-3 cells at 37 C for 0.5, 2 and 5 h, plate reader fluorescence
[7] = target: alpha-fetoprotein (AFP) receptor (AFPR) (human); test: AF-647 labeled rhAFP incubated with U-937 cells at 37 C for 0.5, 2 and 5 h, plate reader fluorescence
H522 = test: Binding of AF-647 labeled rhAFP (ACT-101) to tumor cells; design: species or system human; conditions: H522, non-small cell lung adenocarcinoma
Experimental: (§1) Prior to testing lead compounds in vitro, the expression of the AFP receptor and ability of cells to bind and take up fluorescently-labelled rhAFP was established in the U937 cell line as well as other cell lines, as in the study summarized in Table 1 below. In this study, rhAFP was labeled using the procedures described in the product protocol from commercially available Alexa Fluor-647 (AF-647) protein labeling kits. Binding experiments were performed in 96-well plates and fluorescence was measured using a plate reader. Tumor cells were cultured in suspension or plated in cell culture media. Each tumor cell line was incubated with AF-647 labeled rhAFP at 37° C. for 0.5, 2 and 5 hours (n=3 replicates). Incubation was stopped by chilling on ice. For cells in suspension, cells and culture medium were collected separately by centrifugation and subjected to repeat wash steps. For plated cells, trypsin/EDTA was used for cell detachment.

COLO 205 = test: as above; design: species or system human; conditions: COLO 205, metastatic colorectal adenocarcinoma
Experimental: as §1

MCF7 = test: as above; design: species or system human; conditions: MCF7, breast adenocarcinoma
Experimental: as §1

MOLT-4 = test: as above; design: species or system human; conditions: MOLT-4, acute lymphoblastic leukemia
Experimental: as §1

OVCAR-3 = test: as above; design: species or system human; conditions: OVCAR-3, ovary adenocarcinoma; 37° C., 0.5, 2 and 5 hours
Experimental: as §1

U-937 = test: as above; design: species or system human; conditions: U-937, histiocytic lymphoma
Experimental: as §1

SKOV-3 [8] = test: as above; design: species or system human; conditions: SKOV-3, ovary adenocarcinoma
Experimental: as §1

ovarian cancer organoids = test: Ovarian cancer organoids from two patients; type: cell-based
U937 = test: Cytotoxicity of bioconjugates of varying DPR (Series 1); type: cell-based, human; conditions: Series 1 bioconjugates
Experimental: (§2) A series of bioconjugates containing DM1, DM3, DM4 or ABZ981 synthesized under varying reaction conditions, resulting in different average DPRs. The cytotoxicity of these bioconjugates were evaluated in vitro in a panel of tumor cell lines (leukemia, breast, colorectal, ovarian and lung).

MCF-7 = test: as above; type: cell-based, human
Experimental: as §2

OV AR3 = test: Cytotoxicity of bioconjugates of varying DPR (Series 2); type: cell-based, human; conditions: Series 2 bioconjugates
Experimental: as §2

COLO-205 = test: as above; type: cell-based, human; conditions: Series 2 bioconjugates
Experimental: as §2

SKOV-3 [9] = test: as above; type: cell-based, human; conditions: Series 2 bioconjugates
Experimental: as §2

NCl-H522 = test: as above; type: cell-based, human; conditions: Series 2 bioconjugates
Experimental: as §2

B1: Mature [Asn233Gln]rhAFP(1-591), lacking glycosylation, produced in transgenic goats (ACT-101) (ligand)
chain: RTLHRNEYGIASILDSYQCTAEISLADLATIFFAQFVQEATYKEVSKMVKDALTAIEKPTGDEQSSGCLENQLPAFLEELCHEKEILEKYGHSDCCSQSEEGRHNCFLAHKKPTPASIPLFQVPEPVTSCEAYEEDRETFMNKFIYEIARRHPFLYAPTILLWAARYDKIIPSCCKAENAVECFQTKAATVTKELRESSLLNQHACAVMKNFGTRTFQAITVTKLSQKFTKVQFTEIQKLVLDVAHVHEHCCRGDVLDCLQDGEKIMSYICSQQDTLSNKITECCKLTTLERGQCIIHAENDEKPEGLSPNLNRFLGDRDFNQFSSGEKNIFLASFVHEYSRRHPQLAVSVILRVAKGYQELLEKCFQTENPLECQDKGEEELQKYIQESQALAKRSCGLFQKLGEYYLQNAFLVAYTKKAPQLTSSELMAITRKMAATAATCCQLSEDKLLACGEGAADIIIGHLCIRHEMTPVNPGVGQCCTSSYANRRPCFSSLVVDETYVPPAFSDDKFIFHKDLCQAQGVALQTMKQEFLINLVKQKPQITEEQLEAVIADFSGLLEKCCQGQEQEVCFAEEGQKLISKTRAALGV
modifications: fluorescent label, site not stated: Alexa Fluor-647 (Table 1), AlexaFluor488 (FIG. 1 competition), Alexa Fluor-488 or FITC (other studies)
Question: Which results are given for B1?
Answer: Highest AFP binding over 5 h Period (ng/million cells) [1]: 75; Highest AFP binding over 5 h Period (ng/million cells) [2]: 126; Highest AFP binding over 5 h Period (ng/million cells) [3]: 71.1; Highest AFP binding over 5 h Period (ng/million cells) [4]: 71; Highest AFP binding over 5 h Period (ng/million cells) [5]: 19; Highest AFP binding over 5 h Period (ng/million cells) [6]: 31.3; Highest AFP binding over 5 h Period (ng/million cells) [7]: 84.3

B2: ACT-101 (protein)
chain: RTLHRNEYGIASILDSYQCTAEISLADLATIFFAQFVQEATYKEVSKMVKDALTAIEKPTGDEQSSGCLENQLPAFLEELCHEKEILEKYGHSDCCSQSEEGRHNCFLAHKKPTPASIPLFQVPEPVTSCEAYEEDRETFMNKFIYEIARRHPFLYAPTILLWAARYDKIIPSCCKAENAVECFQTKAATVTKELRESSLLNQHACAVMKNFGTRTFQAITVTKLSQKFTKVQFTEIQKLVLDVAHVHEHCCRGDVLDCLQDGEKIMSYICSQQDTLSNKITECCKLTTLERGQCIIHAENDEKPEGLSPNLNRFLGDRDFNQFSSGEKNIFLASFVHEYSRRHPQLAVSVILRVAKGYQELLEKCFQTENPLECQDKGEEELQKYIQESQALAKRSCGLFQKLGEYYLQNAFLVAYTKKAPQLTSSELMAITRKMAATAATCCQLSEDKLLACGEGAADIIIGHLCIRHEMTPVNPGVGQCCTSSYANRRPCFSSLVVDETYVPPAFSDDKFIFHKDLCQAQGVALQTMKQEFLINLVKQKPQITEEQLEAVIADFSGLLEKCCQGQEQEVCFAEEGQKLISKTRAALGV
Question: For B2, which “Highest AFP binding over 5 h Period” value (H522) is on record?
Answer: 71.1 ng/million cells

Question: And the “Highest AFP binding over 5 h Period” value (COLO 205)?
Answer: 75.0 ng/million cells

Question: What about the “Highest AFP binding over 5 h Period” value (MCF7) of the same molecule?
Answer: 126 ng/million cells

Question: What about the “Highest AFP binding over 5 h Period” value (MOLT-4) of the same molecule?
Answer: 19.0 ng/million cells

Question: What about the “Highest AFP binding over 5 h Period” value (OVCAR-3) of the same molecule?
Answer: 71.0 ng/million cells

Question: And the “Highest AFP binding over 5 h Period” value (U-937)?
Answer: 84.3 ng/million cells

Question: What about the “Highest AFP binding over 5 h Period” value (SKOV-3 [8]) of the same molecule?
Answer: 31.3 ng/million cells

Question: And the “binding and uptake of fluorescently labeled protein by organoids” value (ovarian cancer organoids)?
Answer: bound to and was rapidly taken up

Question: What about the “apoptosis, AnnexinV staining” value (ovarian cancer organoids; by 72 hr, even at low concentrations) of the same molecule?
Answer: innocuous to the cells

B3: HM023-2: Series 1 AFP bioconjugate, toxin printed DME (DM3), DPR 4.8 (conjugate, UniProt P02771 19-609, looked up)
Alpha-fetoprotein: RTLHRNEYGIASILDSYQCTAEISLADLATIFFAQFVQEATYKEVSKMVKDALTAIEKPTGDEQSSGCLENQLPAFLEELCHEKEILEKYGHSDCCSQSEEGRHNCFLAHKKPTPASIPLFQVPEPVTSCEAYEEDRETFMNKFIYEIARRHPFLYAPTILLWAARYDKIIPSCCKAENAVECFQTKAATVTKELRESSLLNQHACAVMKNFGTRTFQAITVTKLSQKFTKVNFTEIQKLVLDVAHVHEHCCRGDVLDCLQDGEKIMSYICSQQDTLSNKITECCKLTTLERGQCIIHAENDEKPEGLSPNLNRFLGDRDFNQFSSGEKNIFLASFVHEYSRRHPQLAVSVILRVAKGYQELLEKCFQTENPLECQDKGEEELQKYIQESQALAKRSCGLFQKLGEYYLQNAFLVAYTKKAPQLTSSELMAITRKMAATAATCCQLSEDKLLACGEGAADIIIGHLCIRHEMTPVNPGVGQCCTSSYANRRPCFSSLVVDETYVPPAFSDDKFIFHKDLCQAQGVALQTMKQEFLINLVKQKPQITEEQLEAVIADFSGLLEKCCQGQEQEVCFAEEGQKLISKTRAALGV
modifications: DM3 maytansinoid toxin conjugate, DPR 4.8
Question: How did the IC50 (U937) turn out when B3 was run?
Answer: 1.6 nM

Question: What about the “potency lower than ABZ981 and DM4 conjugates” value (MCF-7; MCF-7, Series 1) of the same molecule?
Answer: approximately 3 fold

Question: And the IC50 (MCF-7; Series 1 bioconjugates)?
Answer: 4.62 nM

B4: AH00-3D: Series 2 AFP bioconjugate, toxin printed DME (DM3), DPR 4 (conjugate, UniProt P02771 19-609, looked up)
Alpha-fetoprotein: RTLHRNEYGIASILDSYQCTAEISLADLATIFFAQFVQEATYKEVSKMVKDALTAIEKPTGDEQSSGCLENQLPAFLEELCHEKEILEKYGHSDCCSQSEEGRHNCFLAHKKPTPASIPLFQVPEPVTSCEAYEEDRETFMNKFIYEIARRHPFLYAPTILLWAARYDKIIPSCCKAENAVECFQTKAATVTKELRESSLLNQHACAVMKNFGTRTFQAITVTKLSQKFTKVNFTEIQKLVLDVAHVHEHCCRGDVLDCLQDGEKIMSYICSQQDTLSNKITECCKLTTLERGQCIIHAENDEKPEGLSPNLNRFLGDRDFNQFSSGEKNIFLASFVHEYSRRHPQLAVSVILRVAKGYQELLEKCFQTENPLECQDKGEEELQKYIQESQALAKRSCGLFQKLGEYYLQNAFLVAYTKKAPQLTSSELMAITRKMAATAATCCQLSEDKLLACGEGAADIIIGHLCIRHEMTPVNPGVGQCCTSSYANRRPCFSSLVVDETYVPPAFSDDKFIFHKDLCQAQGVALQTMKQEFLINLVKQKPQITEEQLEAVIADFSGLLEKCCQGQEQEVCFAEEGQKLISKTRAALGV
modifications: DM3 maytansinoid toxin conjugate, DPR 4
Question: What does the source list for B4?
Answer: IC50 (OV AR3): 5.47 nM; IC50 (COLO-205): 10.7 nM; IC50 (SKOV-3 [9]): 22.8 nM; IC50 (NCl-H522): 21.9 nM
